In publication PMC10397247 one finds interaction score data, which are given here for 3 molecules.

Test in all cases: two-hybrid library CCmax;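 note: natural log of median RNA to DNA barcode read ratio; higher means stronger binding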
For one assay, the target named is T1, 4H967-AA.
T1 chain: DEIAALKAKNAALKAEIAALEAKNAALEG
The conditions noted are these: mean of both orientations.

The next assay concerns the target T2, 4H953-AA.
T2 chain: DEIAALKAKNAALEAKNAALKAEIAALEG
To be noted: mean of both orientations.

The target of another assay is T3, 4H918-AA.
T3 chain: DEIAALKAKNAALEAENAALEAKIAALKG

The target of another assay is T4, 4H3588-AA.
T4 chain: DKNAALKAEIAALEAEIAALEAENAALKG
The conditions noted are these: mean of both orientations.

Another assay concerns the target T5, 4H3697-AA.
T5 chain: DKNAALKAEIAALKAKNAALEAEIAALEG

The target in the next assay is T6, 4H2648-AA.
T6 chain: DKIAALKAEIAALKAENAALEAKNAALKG
The conditions noted are these: mean of both orientations.

In the next assay the target is T7, 4H3865-AA.
T7 chain: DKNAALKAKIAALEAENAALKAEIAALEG
The conditions noted are these: mean of both orientations.

Another assay concerns the target T8, 4H3056-AA.
T8 chain: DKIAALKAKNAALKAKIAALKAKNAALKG
To be noted: mean of both orientations.

A further assay has as its target T9, 4H3631-AA.
T9 chain: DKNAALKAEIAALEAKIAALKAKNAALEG
To be noted: mean of both orientations.

The next assay concerns the target T10, 4H3133-AA.
T10 chain: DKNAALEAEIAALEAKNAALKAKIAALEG
To be noted: mean of both orientations.

For the next assay, the target named is T11, 4H2907-AA.
T11 chain: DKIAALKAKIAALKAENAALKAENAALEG
To be noted: mean of both orientations.

The target in another assay is T12, 4H2620-AA.
T12 chain: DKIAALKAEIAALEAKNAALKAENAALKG

A further assay has as its target T13, 4H697-AA.
T13 chain: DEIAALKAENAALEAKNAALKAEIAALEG
To be noted: mean of both orientations.

The target in another assay is T14, 4H384-AA.
T14 chain: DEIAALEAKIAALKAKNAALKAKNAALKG
The conditions noted are these: mean of both orientations.

For a further assay, the target named is T15, 4H3718-AA.
T15 chain: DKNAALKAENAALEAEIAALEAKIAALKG
To be noted: mean of both orientations.

Another assay deals with T16, 4H3162-AA.
T16 chain: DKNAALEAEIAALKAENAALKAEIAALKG
The conditions noted are these: mean of both orientations.

Another assay concerns the target T17, 4H3378-AA.
T17 chain: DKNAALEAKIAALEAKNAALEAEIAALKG
To be noted: mean of both orientations.

Another assay addresses T18, 4H982-AA.
T18 chain: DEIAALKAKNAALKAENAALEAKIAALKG
The conditions noted are these: mean of both orientations.

The target of the next assay is T19, 4H3413-AA.
T19 chain: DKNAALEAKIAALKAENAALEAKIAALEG
To be noted: mean of both orientations.

The target in another assay is T20, 4H340-AA.
T20 chain: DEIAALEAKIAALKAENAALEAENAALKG
The conditions noted are these: mean of both orientations.

In another assay the target is T21, 4H3606-AA.
T21 chain: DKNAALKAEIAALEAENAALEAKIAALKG
The conditions noted are these: mean of both orientations.

Another assay has as its target T22, 4H32-AA.
T22 chain: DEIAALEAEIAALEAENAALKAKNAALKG
To be noted: mean of both orientations.

For another assay, the target named is T23, 4H369-AA.
T23 chain: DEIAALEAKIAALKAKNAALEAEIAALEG
The conditions noted are these: mean of both orientations.

For the next assay, the target named is T24, 4H55-AA.
T24 chain: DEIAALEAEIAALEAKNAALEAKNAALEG

In another assay the target is T25, 4H4033-AA.
T25 chain: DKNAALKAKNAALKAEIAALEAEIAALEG
To be noted: mean of both orientations.

The target of another assay is T26, 4H3605-AA.
T26 chain: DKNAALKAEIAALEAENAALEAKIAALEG

The target in a further assay is T27, 4H3625-AA.
T27 chain: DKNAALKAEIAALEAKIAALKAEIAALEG
The conditions noted are these: mean of both orientations.

For another assay, the target named is T28, 4H662-AA.
T28 chain: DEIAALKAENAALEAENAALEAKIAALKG
The conditions noted are these: mean of both orientations.

The next assay addresses T29, 4H3664-AA.
T29 chain: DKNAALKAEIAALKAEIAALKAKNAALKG
The conditions noted are these: mean of both orientations.

The next assay deals with T30, 4H3922-AA.
T30 chain: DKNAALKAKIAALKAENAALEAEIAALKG
The conditions noted are these: mean of both orientations.

The next assay addresses T31, 4H481-AA.
T31 chain: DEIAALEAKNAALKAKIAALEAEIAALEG
The conditions noted are these: mean of both orientations.

For the molecule DEIAALKAKNAALEAENAALEAKIAALKG [4H918-AA], the values for the interaction score with 4H967-AA, with 4H953-AA and with 4H918-AA were -0.889, 2.09 and 1.24, respectively.
As to DKIAALKAEIAALEAKNAALKAENAALKG [4H2620-AA], the interaction score was 0.147 in the assay with 4H3588-AA; -1.64 in the assay with 4H3697-AA; 1.77 with 4H2648-AA; -1.61 with 4H3865-AA; -1.79 in the assay with 4H3056-AA; -0.556 with 4H3631-AA. For the same molecule, the interaction score in the assay with 4H3133-AA was -1.58; with 4H2907-AA, 1.23; with 4H2620-AA, 0.586; with 4H697-AA, -1.54; with 4H384-AA it was 0.949; in the assay with 4H3718-AA, -0.835. Also, the interaction score with 4H3162-AA is -1.82; with 4H3378-AA it was -1.66; in the assay with 4H982-AA, -0.887; with 4H3413-AA, -0.901; in the assay with 4H340-AA it was 2.42; in the assay with 4H3606-AA it was -0.861. The molecule further yielded an interaction score with 4H32-AA of 1.05.
Consider DKNAALKAEIAALEAENAALEAKIAALEG [4H3605-AA], for which the interaction score was 1.77 with 4H369-AA; -1.29 in the assay with 4H55-AA; -1.31 with 4H4033-AA; -1.34 in the assay with 4H3605-AA; -0.874 with 4H3625-AA; -1.77 with 4H662-AA. For the same molecule, the interaction score with 4H3664-AA is -1.67; in the assay with 4H3922-AA, -0.251; with 4H481-AA it was 0.557.
